Key:
[1] = biological target: Cytolysin A (ClyA) wild type, N-terminally His6-tagged (E. coli) (UniProt P77335); assay: FRET or BRET; single-molecule intramolecular FRET of ~100 pM labelled ClyA freely diffusing, with 5 nM to 5 uM unlabelled ClyAwt; assembly triggered with 0.1% (w/v) DDM by manual mixing; 22 °C; 20 mM potassium phosphate pH 7.3, 150 mM NaCl, 0.001% Tween-20, 10 mM DTT; global fit of the histogram time series with the non-sequential assembly model (irreversible steps)
[2] = biological target: Cytolysin A (ClyA) wild type, N-terminally His6-tagged (E. coli) (UniProt P77335); assay: FRET or BRET + cross-linking; rate coefficient of pore closure in the non-sequential assembly model fitted to the single-molecule FRET data, set so that the predicted formation of complete pores matches the cross-linking data (500 nM ClyAwt, 0.1% DDM, 22 °C)

| Substance | k5 (association rate coefficient of all oligomerization steps that lead to incomplete pores) [1] [M⁻¹ s⁻¹] | k6 (association rate coefficient of pore closure, two oligomers to the complete pore) [2] [M⁻¹ s⁻¹] |
| --- | --- | --- |
| ClyA Q56C/E252C labelled with Alexa Fluor 488 at Cys56 and Alexa Fluor 594 at Cys252 (from UniProt P77335 2-303) (natural protein) | 102000 |  |
| Cytolysin A (ClyA) wild type, N-terminally His6-tagged (from UniProt P77335 2-303) (natural protein) |  | > 1e+07 |
